The supplement of paper PMC9233669
Variants at the floor of the assay were thinned out.

What was measured:
biotinyl-Phe-oxazolone = assay: self-aminoacylation, catalytic enhancement (BFO) (fold over background); higher = more active; k-Seq, kA / k0A0; sequences stand for … in GGGAAUGGAUCCACAUCUACGAAUUC…UUCACUGCAGACUUGACGAAGCUG
Summary of the method: (§1)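 The uncatalyzed rate is the low-activity peak of a bimodal Gaussian fit, and catalytic enhancement is median kA divided by it. The kA values came from pseudo-first-order fits, with 1000 bootstraps, of per-sequence fraction reacted measured by streptavidin capture, triplicate qPCR and Illumina sequencing. Mutagenized RNA pools with a 21-nt variable region (0.43 μM) were reacted with each biotinyl-aminoacyl-oxazolone at 2–1250 μM in 50 μL HEPES/NaCl/KCl/MgCl2/CaCl2 buffer with 5% acetonitrile, pH 6.9–7.0, for 90 minutes at room temperature.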

biotinyl-Ile-oxazolone = assay: self-aminoacylation, catalytic enhancement (BIO) (fold over background); higher = more active; k-Seq, kA / k0A0; sequences stand for … in GGGAAUGGAUCCACAUCUACGAAUUC…UUCACUGCAGACUUGACGAAGCUG
Summary of the method: as §1

biotinyl-Met-oxazolone = assay: self-aminoacylation, catalytic enhancement (BMO) (fold over background); higher = more active; k-Seq, kA / k0A0; sequences stand for … in GGGAAUGGAUCCACAUCUACGAAUUC…UUCACUGCAGACUUGACGAAGCUG
Summary of the method: as §1

biotinyl-Val-oxazolone = assay: self-aminoacylation, catalytic enhancement (BVO) (fold over background); higher = more active; k-Seq, kA / k0A0; sequences stand for … in GGGAAUGGAUCCACAUCUACGAAUUC…UUCACUGCAGACUUGACGAAGCUG
Summary of the method: as §1

biotinyl-Leu-oxazolone = assay: self-aminoacylation, catalytic enhancement (BLO) (fold over background); higher = more active; k-Seq, kA / k0A0; sequences stand for … in GGGAAUGGAUCCACAUCUACGAAUUC…UUCACUGCAGACUUGACGAAGCUG
Summary of the method: as §1

biotinyl-Trp-oxazolone = assay: self-aminoacylation, catalytic enhancement (BWO) (fold over background); higher = more active; k-Seq, kA / k0A0; sequences stand for … in GGGAAUGGAUCCACAUCUACGAAUUC…UUCACUGCAGACUUGACGAAGCUG
Summary of the method: as §1

Row | Sequence | self-aminoacylation (biotinyl-Phe-oxazolone) | self-aminoacylation (biotinyl-Ile-oxazolone) | self-aminoacylation (biotinyl-Met-oxazolone) | self-aminoacylation (biotinyl-Val-oxazolone) | self-aminoacylation (biotinyl-Leu-oxazolone) | self-aminoacylation (biotinyl-Trp-oxazolone)
1 | GUUCACCUAAGUCAUCGGGUG [Fam2.2 aminoacylation ribozyme variant] | 51.4 | 5.38 | 7.53 | 5.4 | 9.78 | 7.87
2 | CUAAUUCAAUCAAUCGGUCUG [Fam1A.1 aminoacylation ribozyme variant] | 4.62 | 0.805 | 0.742 | 0.72 | 0.735 | 2.7
3 | AUUUCCCUGGUCAUCGAAUGA [Fam2.1 aminoacylation ribozyme variant] | 0.941 | 1.09 | 1.02 | 1.12 | 1.02 | 0.88
4 | CUACUUUAACCAAUCGGUCUG [Fam1A.1 aminoacylation ribozyme variant] | 1.22 | 0.883 | 0.779 | 0.842 | 0.662 | 0.949
5 | AUUACCCUGGUCAGCGAGUAA [Fam2.1 aminoacylation ribozyme variant] | 0.633 | 1.19 | 1.48 | 1.27 | 1.14 | 0.914
6 | CUUACCCGGGUCAUCGAGUGA [Fam2.1 aminoacylation ribozyme variant] | 36.5 | 3.03 | 5.92 | 3.48 | 7.48 | 7.34
7 | AAGUUUGCUAAUAGUUGCAAU [Fam3.1 aminoacylation ribozyme variant] | 1.25 | 1.26 | 1.15 | 1.31 | 0.88 | 1.29
8 | CUUCACCUAGGUCAUCGGGUU [Fam2.2 aminoacylation ribozyme variant] | 18.1 | 4.09 | 5.02 | 3.77 | 7.09 | 5.02
9 | CUACAUCAAACAAUCGGACUG [Fam1A.1 aminoacylation ribozyme variant] | 1.11 | 1.1 | 0.804 | 0.974 | 0.586 | 0.749
10 | AAGUUUGUUAACAGUCGCAAG [Fam3.1 aminoacylation ribozyme variant] | 1.11 | 1.09 | 0.806 | 0.996 | 1.03 | 0.988
11 | AUUACCCUAGUCAUCGAGCGA [Fam2.1 aminoacylation ribozyme variant] | 0.894 | 1.3 | 1.38 | 1.32 | 1.2 | 1.21
12 | CCACACUUCAAACAAUCCGUC [Fam1B.1 aminoacylation ribozyme variant] | 1.35 | 0.83 | 0.559 | 0.993 | 0.682 | 1.2
13 | CUACUUCAAACAAGCGGGCUG [Fam1A.1 aminoacylation ribozyme variant] | 0.943 | 1.79 | 1.38 | 1.41 | 1.38 | 1.88
14 | UUUCACCUAGGUCUUCGGGUG [Fam2.2 aminoacylation ribozyme variant] | 29 | 4.04 | 4.63 | 4.51 | 5.06 | 5.4
15 | UUUCACGUAGGUCAUCGGGUG [Fam2.2 aminoacylation ribozyme variant] | 32.2 | 2.89 | 4.24 | 4.25 | 3.88 | 4.06
16 | AUUCAACUAGGUUAUCGGGUG [Fam2.2 aminoacylation ribozyme variant] | 22.1 | 2.21 | 3.29 | 2.45 | 3.61 | 3.46
17 | AUUACCCUGGUCAUCGAGUCG [Fam2.1 aminoacylation ribozyme variant] | 0.759 | 0.765 | 0.797 | 0.976 | 0.794 | 0.725
18 | AAGUUUGAUAAUAGUCGUAAG [Fam3.1 aminoacylation ribozyme variant] | 1.38 | 0.716 | 0.625 | 0.603 | 0.65 | 0.783
19 | AUUCACCUAGGUCAUUGGGCG [Fam2.2 aminoacylation ribozyme variant] | 10.6 | 2.58 | 2.49 | 2.66 | 3.36 | 3.16
20 | AUUCACCUAGGUCAUCAGCUG [Fam2.2 aminoacylation ribozyme variant] | 0.631 | 0.757 | 0.806 | 0.757 | 0.804 | 0.477
21 | AAGUUUGCUAAUAGUCGCGGG [Fam3.1 aminoacylation ribozyme variant] | 19.6 | 4.43 | 4.13 | 3.77 | 4.5 | 4.82
22 | AUUAAACUGGUCAUCGAGUGA [Fam2.1 aminoacylation ribozyme variant] | 4.94 | 2.71 | 4.15 | 2.42 | 4.35 | 6.94

Row | Sequence | self-aminoacylation (biotinyl-Phe-oxazolone) | self-aminoacylation (biotinyl-Ile-oxazolone) | self-aminoacylation (biotinyl-Met-oxazolone) | self-aminoacylation (biotinyl-Val-oxazolone) | self-aminoacylation (biotinyl-Leu-oxazolone) | self-aminoacylation (biotinyl-Trp-oxazolone)
23 | AUUACCCUGGUGAUCGAGUCA [Fam2.1 aminoacylation ribozyme variant] | 0.521 | 0.912 | 0.978 | 0.859 | 0.741 | 0.415
24 | ACGUUUGCUAUUAGUCGCAAG [Fam3.1 aminoacylation ribozyme variant] | 1.31 | 1.5 | 1.67 | 1.21 | 1.18 | 2.22
25 | UCACACUUCAACCAAUCGGUC [Fam1B.1 aminoacylation ribozyme variant] | 54.2 | 1.45 | 1.71 | 1.75 | 2.44 | 37.1
26 | CCAGACUUCAAGCAAUCUGUC [Fam1B.1 aminoacylation ribozyme variant] | 0.591 | 0.467 | 0.444 | 0.576 | 0.45 | 0.309
27 | AAGUCAGCUAAUAGUCGCAAG [Fam3.1 aminoacylation ribozyme variant] | 5.28 | 1.94 | 1.83 | 2 | 2.22 | 3.06
28 | CUUACGCUGGUCAUCGAGUGA [Fam2.1 aminoacylation ribozyme variant] | 7.86 | 2.13 | 3.06 | 2.61 | 3.03 | 3.35
29 | AUUCACCUAGGUCCUGGGGUG [Fam2.2 aminoacylation ribozyme variant] | 57.2 | 4.6 | 7.35 | 4.05 | 9.12 | 7.11
30 | AUAACCCUUGUCAUCGAGUGA [Fam2.1 aminoacylation ribozyme variant] | 21.5 | 3.29 | 6.3 | 3.13 | 6.26 | 7.89
31 | AUUCACCUAGAUCCUCGGGUG [Fam2.2 aminoacylation ribozyme variant] | 22.6 | 2.22 | 3.57 | 1.99 | 4.04 | 3.16
32 | AUUCCCCUGGACAUCGAGUGA [Fam2.1 aminoacylation ribozyme variant] | 35.4 | 3.41 | 6 | 3.45 | 6.77 | 7.13
33 | AACUUUGCUAAUAGUCGUAAG [Fam3.1 aminoacylation ribozyme variant] | 3.97 | 1.44 | 1.21 | 1.28 | 1.59 | 2.33
34 | AUUACCCUGGUCAUCGGGUGA [Fam2.1 aminoacylation ribozyme variant] | 711 | 47 | 122 | 60.9 | 133 | 140
35 | AUUAACCUAGGUCAUCGCGUG [Fam2.2 aminoacylation ribozyme variant] | 59.2 | 4.57 | 6.95 | 4.66 | 10.2 | 7.14
36 | GCACACUUAAAGCAAUCGGUC [Fam1B.1 aminoacylation ribozyme variant] | 1.1 | 1.25 | 1.06 | 1.18 | 1.15 | 1.49
37 | CCACACUCCAAACAAUCGGUC [Fam1B.1 aminoacylation ribozyme variant] | 10.9 | 0.982 | 0.917 | 1.31 | 1.09 | 6.11
38 | AUUCACCUUGGUCAUCGGGAG [Fam2.2 aminoacylation ribozyme variant] | 0.73 | 1.07 | 1.05 | 1.05 | 1.09 | 1.27
39 | CUACUUCAAACAAUCGAUCGG [Fam1A.1 aminoacylation ribozyme variant] | 0.743 | 0.647 | 0.56 | 0.73 | 0.721 | 0.676
40 | AUUCACCUAGGUCAAGGGGUG [Fam2.2 aminoacylation ribozyme variant] | 4.67 | 1.37 | 1.43 | 1.3 | 1.41 | 1.3
41 | AAGUUUGCUAAUAGUCGCAAU [Fam3.1 aminoacylation ribozyme variant] | 1.68 | 1.42 | 1.25 | 1.26 | 1.19 | 1.22
42 | AAGGUUGCUCAUAGUCGCAAG [Fam3.1 aminoacylation ribozyme variant] | 4.12 | 1.46 | 1.57 | 1.25 | 1.63 | 1.5
43 | AUUACUCCGGUCAUCGAGUGA [Fam2.1 aminoacylation ribozyme variant] | 16 | 2.81 | 5.22 | 2.64 | 5.43 | 5.76
